Patent US20180086841A1

Columns and labels:
human CD27 (human) [1] = biological target: human CD27 (human) (UniProt P26842); test: flow cytometry on CHO-K1 cells transfected with CD27 (empty vector: + 5.32)
human CD27 (human) [2] = biological target: human CD27 (human) (UniProt P26842); test: flow cytometry on CHO-K1 cells transfected with CD27 (empty vector: GM FITC 212)
[3] = biological target: human CD27 (A59T) (human) (UniProt P26842); test: flow cytometry on CHO-K1 cells transfected with CD27 A59T (empty vector: + 5.32)
[4] = biological target: human CD27 (A59T) (human) (UniProt P26842); test: flow cytometry on CHO-K1 cells transfected with CD27 A59T (empty vector: GM FITC 212)
D32A [5] = test: flow cytometry on CHO-K1 transfectants, left sub-column
D43A [6] = test: as above
E9A [7] = test: as above
F28A [8] = test: as above
G16A [9] = test: as above
G89A [10] = test: as above
H36A [11] = test: as above
H60A [12] = test: as above
I46A [13] = test: as above
K17A [14] = test: as above
K31A [15] = test: as above
N88A [16] = test: as above
P44A [17] = test: as above
P8A [18] = test: as above
Q15A [19] = test: as above
Q41A [20] = test: as above
Q91A [21] = test: as above
R10A [22] = test: as above
R87A [23] = test: as above
R93A [24] = test: as above
S63A [25] = test: as above
V30A [26] = test: as above
V49A [27] = test: as above
W13A [28] = test: as above
W90A [29] = test: as above
D32A [30] = test: flow cytometry on CHO-K1 transfectants, right sub-column
D43A [31] = test: as above
E9A [32] = test: as above
F28A [33] = test: as above
G16A [34] = test: as above
G89A [35] = test: as above
H36A [36] = test: as above
H60A [37] = test: as above
I46A [38] = test: as above
K17A [39] = test: as above
K31A [40] = test: as above
N88A [41] = test: as above
P44A [42] = test: as above
P8A [43] = test: as above
Q15A [44] = test: as above
Q41A [45] = test: as above
Q91A [46] = test: as above
R10A [47] = test: as above
R87A [48] = test: as above
R93A [49] = test: as above
S63A [50] = test: as above
V30A [51] = test: as above
V49A [52] = test: as above
W13A [53] = test: as above
W90A [54] = test: as above
K38A [55] = test: flow cytometry on CHO-K1 transfectants, left sub-column, cell hatched (loss of binding)
R37A [56] = test: as above
K38A [57] = test: flow cytometry on CHO-K1 transfectants, right sub-column, cell hatched (loss of binding)
R37A [58] = test: as above
K38A [59] = test: flow cytometry on CHO-K1 transfectants, left sub-column
R37A [60] = test: as above
K38A [61] = test: flow cytometry on CHO-K1 transfectants, right sub-column
R37A [62] = test: as above
D32A [63] = test: flow cytometry on CHO-K1 transfectants, left sub-column, cell hatched (loss of binding)
K17A [64] = test: as above
Q15A [65] = test: as above
D32A [66] = test: flow cytometry on CHO-K1 transfectants, right sub-column, cell hatched (loss of binding)
K17A [67] = test: as above
Q15A [68] = test: as above

Sequence of I46A (receptor chain, as listed by the source I46A I46A limits assumed): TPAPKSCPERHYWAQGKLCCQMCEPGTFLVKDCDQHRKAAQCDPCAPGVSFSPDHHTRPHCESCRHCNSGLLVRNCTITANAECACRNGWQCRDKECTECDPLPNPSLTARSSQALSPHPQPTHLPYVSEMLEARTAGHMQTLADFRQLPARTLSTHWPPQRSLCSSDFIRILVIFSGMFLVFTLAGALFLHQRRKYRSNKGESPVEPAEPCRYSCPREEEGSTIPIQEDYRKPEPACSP
Sequence of K17A (receptor chain, as listed by the source K17A K17A limits assumed): as the sequence (receptor chain, as listed by the source I46A I46A limits assumed) above, with K17A, A46I counted along it
Sequence of R10A (receptor chain, as listed by the source R10A R10A limits assumed): as the sequence (receptor chain, as listed by the source I46A I46A limits assumed) above, with R10A, A46I counted along it
Sequence of S63A (receptor chain, as listed by the source S63A S63A limits assumed): as the sequence (receptor chain, as listed by the source I46A I46A limits assumed) above, with A46I, S63A counted along it
Sequence of P44A (receptor chain, as listed by the source P44A P44A limits assumed): as the sequence (receptor chain, as listed by the source I46A I46A limits assumed) above, with P44A, A46I counted along it
Sequence of W90A (receptor chain, as listed by the source W90A W90A limits assumed): as the sequence (receptor chain, as listed by the source I46A I46A limits assumed) above, with A46I, W90A counted along it
Sequence of Q91A (receptor chain, as listed by the source Q91A Q91A limits assumed): as the sequence (receptor chain, as listed by the source I46A I46A limits assumed) above, with A46I, Q91A counted along it
Sequence of K38A (receptor chain, as listed by the source K38A K38A limits assumed): as the sequence (receptor chain, as listed by the source I46A I46A limits assumed) above, with K38A, A46I counted along it
Sequence of H60A (receptor chain, as listed by the source H60A H60A limits assumed): as the sequence (receptor chain, as listed by the source I46A I46A limits assumed) above, with A46I, H60A counted along it
Sequence of Q41A (receptor chain, as listed by the source Q41A Q41A limits assumed): as the sequence (receptor chain, as listed by the source I46A I46A limits assumed) above, with Q41A, A46I counted along it
Sequence of Fc-mCD70 (O55237 45-195): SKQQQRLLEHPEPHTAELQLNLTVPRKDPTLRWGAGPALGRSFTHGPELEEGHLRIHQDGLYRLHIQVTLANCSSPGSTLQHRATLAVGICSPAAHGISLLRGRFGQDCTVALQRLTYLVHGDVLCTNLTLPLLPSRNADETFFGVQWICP
Sequence of R37A (receptor chain, as listed by the source R37A R37A limits assumed): as the sequence (receptor chain, as listed by the source I46A I46A limits assumed) above, with R37A, A46I counted along it
Sequence of G16A (receptor chain, as listed by the source G16A G16A limits assumed): as the sequence (receptor chain, as listed by the source I46A I46A limits assumed) above, with G16A, A46I counted along it
Sequence of R93A (receptor chain, as listed by the source R93A R93A limits assumed): as the sequence (receptor chain, as listed by the source I46A I46A limits assumed) above, with A46I, R93A counted along it
Sequence of F28A (receptor chain, as listed by the source F28A F28A limits assumed): as the sequence (receptor chain, as listed by the source I46A I46A limits assumed) above, with F28A, A46I counted along it
Sequence of D43A (receptor chain, as listed by the source D43A D43A limits assumed): as the sequence (receptor chain, as listed by the source I46A I46A limits assumed) above, with D43A, A46I counted along it
Sequence of R87A (receptor chain, as listed by the source R87A R87A limits assumed): as the sequence (receptor chain, as listed by the source I46A I46A limits assumed) above, with A46I, R87A counted along it
Sequence of K31A (receptor chain, as listed by the source K31A K31A limits assumed): as the sequence (receptor chain, as listed by the source I46A I46A limits assumed) above, with K31A, A46I counted along it
Sequence of V49A (receptor chain, as listed by the source V49A V49A limits assumed): as the sequence (receptor chain, as listed by the source I46A I46A limits assumed) above, with A46I, V49A counted along it
Sequence of Q15A (receptor chain, as listed by the source Q15A Q15A limits assumed): as the sequence (receptor chain, as listed by the source I46A I46A limits assumed) above, with Q15A, A46I counted along it

Fc-mCD70 (from UniProt O55237 45-195) (Fc fusion)
cells in the + gate (human CD27 (human) [1]): 58.9
GM FITC (human CD27 (human) [2]): 1280
cells in the + gate [3]: 52.5
GM FITC [4]: 1060

9F4 (mouse IgG2a) (antibody)
binding, WT hCD27 = 100 (GM FITC) (D32A [5]): 118%
binding, WT hCD27 = 100 (GM FITC) (D43A [6]): 201%
binding, WT hCD27 = 100 (GM FITC) (E9A [7]): 96.6%
binding, WT hCD27 = 100 (GM FITC) (F28A [8]): 115%
binding, WT hCD27 = 100 (GM FITC) (G16A [9]): 94.7%
binding, WT hCD27 = 100 (GM FITC) (G89A [10]): 116%
binding, WT hCD27 = 100 (GM FITC) (H36A [11]): 88.5%
binding, WT hCD27 = 100 (GM FITC) (H60A [12]): 185%
binding, WT hCD27 = 100 (GM FITC) (I46A [13]): 137%
binding, WT hCD27 = 100 (GM FITC) (K17A [14]): 98%
binding, WT hCD27 = 100 (GM FITC) (K31A [15]): 207%
binding, WT hCD27 = 100 (GM FITC) (N88A [16]): 153%
binding, WT hCD27 = 100 (GM FITC) (P44A [17]): 159%
binding, WT hCD27 = 100 (GM FITC) (P8A [18]): 68.5%
binding, WT hCD27 = 100 (GM FITC) (Q15A [19]): 107%
binding, WT hCD27 = 100 (GM FITC) (Q41A [20]): 113%
binding, WT hCD27 = 100 (GM FITC) (Q91A [21]): 149%
binding, WT hCD27 = 100 (GM FITC) (R10A [22]): 104%
binding, WT hCD27 = 100 (GM FITC) (R87A [23]): 153%
binding, WT hCD27 = 100 (GM FITC) (R93A [24]): 122%
binding, WT hCD27 = 100 (GM FITC) (S63A [25]): 153%
binding, WT hCD27 = 100 (GM FITC) (V30A [26]): 166%
binding, WT hCD27 = 100 (GM FITC) (V49A [27]): 151%
binding, WT hCD27 = 100 (GM FITC) (W13A [28]): 90.7%
binding, WT hCD27 = 100 (GM FITC) (W90A [29]): 130%
binding, WT hCD27 = 100 (GM FITC) (D32A [30]): 66.3%
binding, WT hCD27 = 100 (GM FITC) (D43A [31]): 92.5%
binding, WT hCD27 = 100 (GM FITC) (E9A [32]): 109%
binding, WT hCD27 = 100 (GM FITC) (F28A [33]): 58.2%
binding, WT hCD27 = 100 (GM FITC) (G16A [34]): 102%
binding, WT hCD27 = 100 (GM FITC) (G89A [35]): 77.5%
binding, WT hCD27 = 100 (GM FITC) (H36A [36]): 66.5%
binding, WT hCD27 = 100 (GM FITC) (H60A [37]): 126%
binding, WT hCD27 = 100 (GM FITC) (I46A [38]): 82.7%
binding, WT hCD27 = 100 (GM FITC) (K17A [39]): 106%
binding, WT hCD27 = 100 (GM FITC) (K31A [40]): 133%
binding, WT hCD27 = 100 (GM FITC) (N88A [41]): 104%
binding, WT hCD27 = 100 (GM FITC) (P44A [42]): 91.7%
binding, WT hCD27 = 100 (GM FITC) (P8A [43]): 62.2%
binding, WT hCD27 = 100 (GM FITC) (Q15A [44]): 118%
binding, WT hCD27 = 100 (GM FITC) (Q41A [45]): 71.3%
binding, WT hCD27 = 100 (GM FITC) (Q91A [46]): 111%
binding, WT hCD27 = 100 (GM FITC) (R10A [47]): 99%
binding, WT hCD27 = 100 (GM FITC) (R87A [48]): 98.8%
binding, WT hCD27 = 100 (GM FITC) (R93A [49]): 91.1%
binding, WT hCD27 = 100 (GM FITC) (S63A [50]): 149%
binding, WT hCD27 = 100 (GM FITC) (V30A [51]): 95.6%
binding, WT hCD27 = 100 (GM FITC) (V49A [52]): 92.1%
binding, WT hCD27 = 100 (GM FITC) (W13A [53]): 86.5%
binding, WT hCD27 = 100 (GM FITC) (W90A [54]): 85.7%
binding, WT hCD27 = 100 (GM FITC) (K38A [55]): 44.7%
binding, WT hCD27 = 100 (GM FITC) (R37A [56]): 35%
binding, WT hCD27 = 100 (GM FITC) (K38A [57]): 31.6%
binding, WT hCD27 = 100 (GM FITC) (R37A [58]): 6.2%

1A4 (mouse IgG1) (antibody)
binding, WT hCD27 = 100 (GM FITC) (D43A [6]): 195%
binding, WT hCD27 = 100 (GM FITC) (E9A [7]): 98.2%
binding, WT hCD27 = 100 (GM FITC) (F28A [8]): 113%
binding, WT hCD27 = 100 (GM FITC) (G16A [9]): 90.8%
binding, WT hCD27 = 100 (GM FITC) (G89A [10]): 100%
binding, WT hCD27 = 100 (GM FITC) (H36A [11]): 111%
binding, WT hCD27 = 100 (GM FITC) (H60A [12]): 167%
binding, WT hCD27 = 100 (GM FITC) (I46A [13]): 129%
binding, WT hCD27 = 100 (GM FITC) (K31A [15]): 194%
binding, WT hCD27 = 100 (GM FITC) (K38A [59]): 104%
binding, WT hCD27 = 100 (GM FITC) (N88A [16]): 154%
binding, WT hCD27 = 100 (GM FITC) (P44A [17]): 146%
binding, WT hCD27 = 100 (GM FITC) (P8A [18]): 84.5%
binding, WT hCD27 = 100 (GM FITC) (Q41A [20]): 106%
binding, WT hCD27 = 100 (GM FITC) (Q91A [21]): 146%
binding, WT hCD27 = 100 (GM FITC) (R10A [22]): 107%
binding, WT hCD27 = 100 (GM FITC) (R37A [60]): 115%
binding, WT hCD27 = 100 (GM FITC) (R87A [23]): 143%
binding, WT hCD27 = 100 (GM FITC) (R93A [24]): 120%
binding, WT hCD27 = 100 (GM FITC) (S63A [25]): 158%
binding, WT hCD27 = 100 (GM FITC) (V30A [26]): 161%
binding, WT hCD27 = 100 (GM FITC) (V49A [27]): 144%
binding, WT hCD27 = 100 (GM FITC) (W13A [28]): 89.1%
binding, WT hCD27 = 100 (GM FITC) (W90A [29]): 123%
binding, WT hCD27 = 100 (GM FITC) (D43A [31]): 93.4%
binding, WT hCD27 = 100 (GM FITC) (E9A [32]): 122%
binding, WT hCD27 = 100 (GM FITC) (F28A [33]): 60%
binding, WT hCD27 = 100 (GM FITC) (G16A [34]): 97.3%
binding, WT hCD27 = 100 (GM FITC) (G89A [35]): 81.8%
binding, WT hCD27 = 100 (GM FITC) (H36A [36]): 85.2%
binding, WT hCD27 = 100 (GM FITC) (H60A [37]): 120%
binding, WT hCD27 = 100 (GM FITC) (I46A [38]): 82.7%
binding, WT hCD27 = 100 (GM FITC) (K31A [40]): 138%
binding, WT hCD27 = 100 (GM FITC) (K38A [61]): 97.7%
binding, WT hCD27 = 100 (GM FITC) (N88A [41]): 116%
binding, WT hCD27 = 100 (GM FITC) (P44A [42]): 90.5%
binding, WT hCD27 = 100 (GM FITC) (P8A [43]): 79.1%
binding, WT hCD27 = 100 (GM FITC) (Q41A [45]): 76.1%
binding, WT hCD27 = 100 (GM FITC) (Q91A [46]): 120%
binding, WT hCD27 = 100 (GM FITC) (R10A [47]): 113%
binding, WT hCD27 = 100 (GM FITC) (R37A [62]): 87%
binding, WT hCD27 = 100 (GM FITC) (R87A [48]): 108%
binding, WT hCD27 = 100 (GM FITC) (R93A [49]): 91.1%
binding, WT hCD27 = 100 (GM FITC) (S63A [50]): 163%
binding, WT hCD27 = 100 (GM FITC) (V30A [51]): 102%
binding, WT hCD27 = 100 (GM FITC) (V49A [52]): 97%
binding, WT hCD27 = 100 (GM FITC) (W13A [53]): 93.4%
binding, WT hCD27 = 100 (GM FITC) (W90A [54]): 96.4%
binding, WT hCD27 = 100 (GM FITC) (D32A [63]): 43.7%
binding, WT hCD27 = 100 (GM FITC) (K17A [64]): 32.4%
binding, WT hCD27 = 100 (GM FITC) (Q15A [65]): 32%
binding, WT hCD27 = 100 (GM FITC) (D32A [66]): 8.7%
binding, WT hCD27 = 100 (GM FITC) (K17A [67]): 6.8%
binding, WT hCD27 = 100 (GM FITC) (Q15A [68]): 7.6%
